Patent US20180127500A1 (ANAPTYSBIO, published 2018)

B1: APE5121 (antibody, V domains shown)
VH: EVQVLESGGGLVQPGGSLRLYCVASGFTFSGSYAMSWVRQAPGKGLEWVSAISGSGGSTYYADSVKGRFTISRDNSKNTLYLQMNSLRAEDTAVYYCAKKYYVGPADYWGQGTLVTVSS
VL: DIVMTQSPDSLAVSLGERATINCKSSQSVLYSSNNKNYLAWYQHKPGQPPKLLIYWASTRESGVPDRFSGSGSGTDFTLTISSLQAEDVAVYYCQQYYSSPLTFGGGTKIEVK
notes: also called Back-Up Antibody
B2: APE5137 (antibody, V domains shown)
VH: EVQLLESGGGLVQPGGSLRLSCAAASGFTFSSYDMSWVRQAPGKGLDWVSTISGGGTYTYYQDSVKGRFTISRDNSKNTLYLQMNSLRAEDTAVYYCASMDYWGQGTTVTVSS
VL: DIQMTQSPSSLSASVGDRVTITCRASQSIRRYLNWYHQKPGKAPKLLIYGASTLQSGVPSRFSGSGSGTDFTLTISSLQPEDFAVYYCQQSHSAPLTFGGGTKVEIKR
notes: also called Lead Antibody; lead anti-TIM-3 antibody

Experiments:
[1] = target: T1, Human TIM-3 (human, UniProt Q8TDQ0 22-200, limits assumed); assay: BIACORE (SPR)
T1 construct: The construct used for BIACORE is not described; also called T Cell Immunoglobulin and Mucin Protein 3; HAVCR2
T1 sequence (looked up): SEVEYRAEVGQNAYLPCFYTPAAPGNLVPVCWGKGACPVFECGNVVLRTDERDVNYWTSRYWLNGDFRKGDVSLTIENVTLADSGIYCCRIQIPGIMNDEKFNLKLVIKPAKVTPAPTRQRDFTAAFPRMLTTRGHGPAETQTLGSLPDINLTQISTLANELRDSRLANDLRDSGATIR

[2] = target: T2, Cyno TIM-3 (cynomolgus monkey, UniProt A0A2K5U3G7 22-294); assay: BIACORE (SPR)
T2 construct: The construct used for BIACORE is not described; also called cynomolgus monkey TIM-3
T2 sequence: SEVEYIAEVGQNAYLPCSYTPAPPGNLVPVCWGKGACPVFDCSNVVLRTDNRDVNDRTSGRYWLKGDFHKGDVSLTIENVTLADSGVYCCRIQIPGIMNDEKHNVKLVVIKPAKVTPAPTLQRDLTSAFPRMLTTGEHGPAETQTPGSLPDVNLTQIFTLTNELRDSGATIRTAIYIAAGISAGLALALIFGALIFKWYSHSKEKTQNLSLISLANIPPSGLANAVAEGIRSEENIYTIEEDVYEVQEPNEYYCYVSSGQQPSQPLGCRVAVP

| Binder | Kd [1] [nM] | Kd [2] [nM] |
| --- | --- | --- |
| B1 | < 0.05 | 1.5 |
| B2 | 0.05 | 0.19 |
